Columns and labels:
Experiment in all cases: EMSA
[1] = target: DNMT3A full-length (human, UniProt Q9Y6K1 1-912)
[2] = target: DNMT3A catalytic domain (cDNMT3A) (human, UniProt Q9Y6K1 612-912)
[3] = target: T1, M.HhaI (bacterial (species ), UniProt P05102 1-327)
T1 sequence: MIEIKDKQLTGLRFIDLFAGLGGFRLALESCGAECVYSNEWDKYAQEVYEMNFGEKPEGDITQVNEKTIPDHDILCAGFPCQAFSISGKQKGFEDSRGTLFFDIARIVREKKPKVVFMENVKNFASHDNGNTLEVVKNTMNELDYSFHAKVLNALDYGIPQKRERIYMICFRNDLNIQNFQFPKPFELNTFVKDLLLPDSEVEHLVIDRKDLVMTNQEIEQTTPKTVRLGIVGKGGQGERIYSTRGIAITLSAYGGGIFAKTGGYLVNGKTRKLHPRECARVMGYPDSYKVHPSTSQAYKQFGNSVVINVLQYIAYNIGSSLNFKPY

DNMT3A full-length, sequence (Q9Y6K1 whole entry, the tested form may be a part): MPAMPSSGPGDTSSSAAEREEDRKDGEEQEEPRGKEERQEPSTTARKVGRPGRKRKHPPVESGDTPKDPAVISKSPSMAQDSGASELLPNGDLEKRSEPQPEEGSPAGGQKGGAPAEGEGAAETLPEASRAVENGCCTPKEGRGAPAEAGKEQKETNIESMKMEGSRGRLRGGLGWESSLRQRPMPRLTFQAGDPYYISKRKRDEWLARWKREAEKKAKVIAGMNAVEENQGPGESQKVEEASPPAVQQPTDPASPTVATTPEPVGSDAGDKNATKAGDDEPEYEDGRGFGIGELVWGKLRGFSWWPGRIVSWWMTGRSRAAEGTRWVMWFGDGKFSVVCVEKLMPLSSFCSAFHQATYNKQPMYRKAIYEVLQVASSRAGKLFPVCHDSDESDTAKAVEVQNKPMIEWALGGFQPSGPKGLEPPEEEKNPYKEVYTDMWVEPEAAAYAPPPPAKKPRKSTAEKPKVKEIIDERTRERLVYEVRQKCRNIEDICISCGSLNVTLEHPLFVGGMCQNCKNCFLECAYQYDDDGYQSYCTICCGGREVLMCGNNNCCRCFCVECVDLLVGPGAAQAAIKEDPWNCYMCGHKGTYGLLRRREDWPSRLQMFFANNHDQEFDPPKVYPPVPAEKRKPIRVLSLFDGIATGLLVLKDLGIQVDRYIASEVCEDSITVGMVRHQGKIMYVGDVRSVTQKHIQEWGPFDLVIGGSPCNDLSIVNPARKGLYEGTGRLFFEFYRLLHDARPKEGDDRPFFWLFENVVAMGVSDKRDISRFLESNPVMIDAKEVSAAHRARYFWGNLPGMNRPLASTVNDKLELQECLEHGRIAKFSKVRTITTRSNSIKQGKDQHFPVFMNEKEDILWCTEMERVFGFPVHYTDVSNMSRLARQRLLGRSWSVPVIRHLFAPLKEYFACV
DNMT3A catalytic domain (cDNMT3A), sequence (Q9Y6K1 612-912): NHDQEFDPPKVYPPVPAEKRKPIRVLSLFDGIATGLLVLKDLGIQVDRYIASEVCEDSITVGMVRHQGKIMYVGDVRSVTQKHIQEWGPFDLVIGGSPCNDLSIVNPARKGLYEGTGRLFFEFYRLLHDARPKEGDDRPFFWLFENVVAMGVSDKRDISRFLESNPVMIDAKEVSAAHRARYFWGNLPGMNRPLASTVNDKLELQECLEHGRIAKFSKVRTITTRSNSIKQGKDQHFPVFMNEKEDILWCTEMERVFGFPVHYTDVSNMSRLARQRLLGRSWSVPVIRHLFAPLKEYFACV

B1: NUP153 duplex siRNA (dsRNA)
RNA 1: ACCAAAUAAAACUGGCAAATT
RNA 2: UUUGCCAGUUUUAUUUGGUTT
modifications: 3' dTdT on both strands (DNA residues)
Kd [1]: 520 nM

GAGUUUACCCCGCGCCACCUU (ssRNA) [EFS1 (ssEF1a RNA)]
Kd [1]: 690 nM
binding result [2]: no binding
binding result [3]: no binding

Source: article PMC3458530
